What was measured:
Conditions in all cases: both partners purified
[1] = target: T1, R411A-α2 (E. coli class Ia ribonucleotide reductase subunit α2 with the R411A substitution) (E. coli, UniProt P00452 1-761, R411A); test: spectrophotometric competitive inhibition assay (enzyme activity); R411A-α2 used as the inhibitor, 10 nM to 5 μM; D2O assay buffer; relative activities in the presence of inhibitor fit to the standard Kd equation (eq. 1); average of two replicates
T1 construct: Ribonucleoside-diphosphate reductase 1 subunit alpha (α, NrdA), E. coli; GCG (Ala) inserted at position 411; the construct has an N-terminal (His)6-tag with a 10 amino acid linker; Homodimer (α2); source: E. coli, expressed from pET28a-nrdA, purified by previous protocols; pre-reduced with 30 mM DTT and 15 mM HU before use
T1 sequence: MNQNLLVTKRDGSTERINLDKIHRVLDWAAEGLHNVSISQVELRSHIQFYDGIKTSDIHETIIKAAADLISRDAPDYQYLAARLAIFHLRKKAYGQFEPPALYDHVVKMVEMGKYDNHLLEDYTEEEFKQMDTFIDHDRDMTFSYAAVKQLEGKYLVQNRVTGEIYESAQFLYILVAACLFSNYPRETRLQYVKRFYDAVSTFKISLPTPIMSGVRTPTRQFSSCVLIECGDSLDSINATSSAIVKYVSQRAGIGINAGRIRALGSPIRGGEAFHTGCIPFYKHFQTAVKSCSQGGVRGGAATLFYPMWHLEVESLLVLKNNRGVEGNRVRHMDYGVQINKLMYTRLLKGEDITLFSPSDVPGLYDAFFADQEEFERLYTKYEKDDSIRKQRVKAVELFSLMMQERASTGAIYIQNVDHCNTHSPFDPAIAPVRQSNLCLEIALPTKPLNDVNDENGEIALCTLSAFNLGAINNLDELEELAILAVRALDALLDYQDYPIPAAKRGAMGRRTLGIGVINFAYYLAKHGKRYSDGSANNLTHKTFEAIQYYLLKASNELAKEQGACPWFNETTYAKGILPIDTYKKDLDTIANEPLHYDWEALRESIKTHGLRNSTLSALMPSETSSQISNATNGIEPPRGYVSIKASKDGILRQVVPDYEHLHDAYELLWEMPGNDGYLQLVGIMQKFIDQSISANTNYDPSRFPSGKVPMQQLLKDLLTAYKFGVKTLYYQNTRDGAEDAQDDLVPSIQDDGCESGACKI

[2] = target: T2, R411A-α2, E. coli class Ia ribonucleotide reductase subunit α2 with R411A (E. coli, UniProt P00452 1-761, R411A); test: competitive inhibition assay; Kd for α2 mutant and wt-β2, determined in H2O and D2O buffers by the competitive inhibition assay of ref. 42; details in SI-2, Fig. S2
T2 construct: E. coli class Ia ribonucleotide reductase subunit alpha (nrdA) with R411A; a 10 amino acid linker follows the N-terminal (His)6-tag; source: pre-reduced with 30 mM DTT and 15 mM HU before use
T2 sequence (looked up): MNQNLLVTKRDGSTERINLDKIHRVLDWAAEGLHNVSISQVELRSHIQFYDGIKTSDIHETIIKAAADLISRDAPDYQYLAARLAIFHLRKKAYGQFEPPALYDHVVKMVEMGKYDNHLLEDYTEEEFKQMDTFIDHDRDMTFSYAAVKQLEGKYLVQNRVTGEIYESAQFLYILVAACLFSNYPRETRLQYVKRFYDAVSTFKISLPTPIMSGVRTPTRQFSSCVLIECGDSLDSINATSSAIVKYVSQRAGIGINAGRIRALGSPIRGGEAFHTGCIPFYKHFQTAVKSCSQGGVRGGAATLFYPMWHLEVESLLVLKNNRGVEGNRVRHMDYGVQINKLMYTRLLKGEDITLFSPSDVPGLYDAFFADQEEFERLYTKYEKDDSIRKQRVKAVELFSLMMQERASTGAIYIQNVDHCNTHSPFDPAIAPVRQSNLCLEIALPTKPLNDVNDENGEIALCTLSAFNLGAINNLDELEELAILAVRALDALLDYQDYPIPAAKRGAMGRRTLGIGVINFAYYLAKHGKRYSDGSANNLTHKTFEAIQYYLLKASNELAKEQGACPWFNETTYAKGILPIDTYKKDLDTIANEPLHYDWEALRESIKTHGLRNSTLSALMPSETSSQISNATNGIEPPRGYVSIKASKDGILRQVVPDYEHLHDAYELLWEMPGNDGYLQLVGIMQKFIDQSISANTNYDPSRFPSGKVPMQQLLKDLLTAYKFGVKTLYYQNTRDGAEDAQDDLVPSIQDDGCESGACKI

[3] = target: T3, NH2Y731/R411A-α2, E. coli class Ia ribonucleotide reductase subunit α2 with 3-aminotyrosine at 731 and R411A (E. coli, UniProt P00452 1-761, R411A, 3-aminotyrosine (NH2Y) at 731 in place of Y731); test: as above
T3 construct: E. coli class Ia ribonucleotide reductase subunit alpha (nrdA) with R411A and the unnatural amino acid 3-aminotyrosine incorporated at position 731; a 10 amino acid linker follows the N-terminal (His)6-tag; With β2, CDP and ATP the 3-aminotyrosine at 731 is oxidised to the radical NH2Y731˙ (ND2Y731˙ in D2O); also called ND2Y731˙/R411A-α2; ND2Y731˙/R411A-α; source: pre-reduced with 30 mM DTT and …
T3 sequence (looked up): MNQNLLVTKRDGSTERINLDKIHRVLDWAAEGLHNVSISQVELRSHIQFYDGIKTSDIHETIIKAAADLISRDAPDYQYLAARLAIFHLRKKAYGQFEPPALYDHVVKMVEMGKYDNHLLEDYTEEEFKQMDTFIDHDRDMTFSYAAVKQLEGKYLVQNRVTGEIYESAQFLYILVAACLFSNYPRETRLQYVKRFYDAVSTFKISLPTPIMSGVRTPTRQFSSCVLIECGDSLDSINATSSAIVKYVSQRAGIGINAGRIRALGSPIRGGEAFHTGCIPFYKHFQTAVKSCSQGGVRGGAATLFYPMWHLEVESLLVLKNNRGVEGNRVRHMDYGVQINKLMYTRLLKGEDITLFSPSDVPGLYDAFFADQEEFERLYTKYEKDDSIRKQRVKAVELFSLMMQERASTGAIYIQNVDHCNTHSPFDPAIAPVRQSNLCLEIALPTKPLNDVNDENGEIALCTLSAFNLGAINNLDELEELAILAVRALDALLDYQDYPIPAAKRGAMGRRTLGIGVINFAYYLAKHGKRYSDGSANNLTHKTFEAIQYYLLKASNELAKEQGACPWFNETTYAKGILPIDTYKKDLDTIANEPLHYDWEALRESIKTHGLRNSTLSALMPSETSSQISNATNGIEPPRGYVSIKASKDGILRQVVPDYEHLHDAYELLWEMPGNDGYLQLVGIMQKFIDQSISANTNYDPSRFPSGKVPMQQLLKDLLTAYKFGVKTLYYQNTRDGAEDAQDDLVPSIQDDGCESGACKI

B1: wt-β2 (E. coli class Ia ribonucleotide reductase subunit β2, wild type) (enzyme, UniProt P69924 1-376, looked up)
chain: MAYTTFSQTKNDQLKEPMFFGQPVNVARYDQQKYDIFEKLIEKQLSFFWRPEEVDVSRDRIDYQALPEHEKHIFISNLKYQTLLDSIQGRSPNVALLPLISIPELETWVETWAFSETIHSRSYTHIIRNIVNDPSVVFDDIVTNEQIQKRAEGISSYYDELIEMTSYWHLLGEGTHTVNGKTVTVSLRELKKKLYLCLMSVNALEAIRFYVSFACSFAFAERELMEGNAKIIRLIARDEALHLTGTQHMLNLLRSGADDPEMAEIAEECKQECYDLFVQAAQQEKDWADYLFRDGSMIGLNKDILCQYVEYITNIRMQAVGLDLPFQTRSNPIPWINTWLVSDNVQVAPQEVEVSSYLVGQIDSEVDTDDLSNFQL
modifications: tyrosyl radical at Y122 (1.2 Y•/β2), di-iron cofactor
notes: Ribonucleoside-diphosphate reductase 1 subunit beta (β, NrdB), E. coli, wild type; Y122 is Y123 in P69924); Homodimer (β2); source: expressed and purified by standard protocols (7000 nmol min^-1 mg^-1, 1.2 Y•/β2)
Question: With B1 as the binder, how does the Kd [1] read?
Answer: 900 ± 190 nM

B2: wt-β2, E. coli class Ia ribonucleotide reductase subunit β2 (enzyme, UniProt P69924 1-376, looked up)
chain: MAYTTFSQTKNDQLKEPMFFGQPVNVARYDQQKYDIFEKLIEKQLSFFWRPEEVDVSRDRIDYQALPEHEKHIFISNLKYQTLLDSIQGRSPNVALLPLISIPELETWVETWAFSETIHSRSYTHIIRNIVNDPSVVFDDIVTNEQIQKRAEGISSYYDELIEMTSYWHLLGEGTHTVNGKTVTVSLRELKKKLYLCLMSVNALEAIRFYVSFACSFAFAERELMEGNAKIIRLIARDEALHLTGTQHMLNLLRSGADDPEMAEIAEECKQECYDLFVQAAQQEKDWADYLFRDGSMIGLNKDILCQYVEYITNIRMQAVGLDLPFQTRSNPIPWINTWLVSDNVQVAPQEVEVSSYLVGQIDSEVDTDDLSNFQL
modifications: tyrosyl radical at Y122 (1.2 Y˙/β2)
notes: E. coli class Ia ribonucleotide reductase subunit beta, with the di-iron tyrosyl radical cofactor (FeIII2–Y122˙)
Question: B2 was tested. Which Kd [2] did it give?
Answer: 940 ± 330 nM

Question: And the Kd [3]?
Answer: 8 ± 1 nM

Reference: PMC5968753, “Radical transfer in E. coli ribonucleotide reductase: a NH2Y731/R411A-α mutant unmasks a new conformation of the pathway residue 731† †Electronic supplementary information (ESI) available. See DOI: 10.1039/c5sc03460d” (Chemical Science, 2015)
